Measurements published in patent publication US20110275699A1, “Treatment For Obesity And Diabetes” (University of California, priority 2010, published 2011).

Molecular target: FLAG-tagged USF-1 (wild type, overexpressed in cells) (UniProt P22415)
Assay: cell-based or functional assay

Chain of UniProt P22415 (P22415 whole entry): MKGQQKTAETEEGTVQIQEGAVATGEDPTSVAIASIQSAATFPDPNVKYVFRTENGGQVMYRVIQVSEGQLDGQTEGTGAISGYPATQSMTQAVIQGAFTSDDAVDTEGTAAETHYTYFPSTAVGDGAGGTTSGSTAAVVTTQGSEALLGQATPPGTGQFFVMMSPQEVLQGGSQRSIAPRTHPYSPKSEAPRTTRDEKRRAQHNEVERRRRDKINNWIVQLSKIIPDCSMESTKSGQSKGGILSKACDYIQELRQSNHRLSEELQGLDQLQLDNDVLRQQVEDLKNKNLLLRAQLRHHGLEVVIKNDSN

Substance	FAS promoter activity (-444 FAS-Luc reporter)
HDAC9, overexpressed in cells (from UniProt Q9UKV0 1-1011) (enzyme)	50 % decrease
P/CAF, overexpressed in cells (from UniProt Q92831 1-832) (enzyme)	2 fold
